Measured values as given in US20080267980A1.

Target: C3 ligand for CR2 deposited on CHO cells (human) (UniProt P01024)
Experiment: cell-based or functional assay

| 50% inhibition of CHO cell lysis | Binder |
| --- | --- |
| 18 nM | CR2-DAF (protein) ISCGSPPPILNGRISYYSTPIAVGTVIRYSCSGTFRLIGEKSLLCITKDKVDGTWDKPAPKCEYFNKYSSCPEPIVPGGYKIRGSTPYRHGDSVTFACKTNFSMNGNKSVWCQANNMWGPTRLPTCVSVFPLECPALPMIHNGHHTSENVGSIAPGLSVTYSCESGYLLVGEKIINCLSSGKWSAVPPTCEEARCKSLGRFPNGKVKEPPILRVGVTANFFCDEGYRLQGPPSSRCVIAGQGVAWTKMPVCGGGSGGGGSDCGLPPDVPNAQPALEGRTSFPEDTVITYKCEESFVKIPGEKDSVICLKGSQWSDIEEFCNRSCEVPTRLNSASLKQPYITQNYFPVGTVVEYECRPGYRREPSLSPKLTCLQNLKWSTAVEFCKKKSCPNPGEIRNGQIDVPGGILFGATISFSCNTGYKLFGSTSSFCLISGSSVQWSDPLPECREIYCPAPPQIDNGIIQGERDHYGYRQSVTYACNKGFTMIGEHSIYCTV |
| 102 nM | CR2-CD59 (protein) ISCGSPPPILNGRISYYSTPIAVGTVIRYSCSGTFRLIGEKSLLCITKDKVDGTWDKPAPKCEYFNKYSSCPEPIVPGGYKIRGSTPYRHGDSVTFACKTNFSMNGNKSVWCQANNMWGPTRLPTCVSVFPLECPALPMIHNGHHTSENVGSIAPGLSVTYSCESGYLLVGEKIINCLSSGKWSAVPPTCEEARCKSLGRFPNGKVKEPPILRVGVTANFFCDEGYRLQGPPSSRCVIAGQGVAWTKMPVCSGGGGSLQCYNCPNPTADCKTAVNCSSDFDACLITKAGLQVYNKCWKFEHCNFNDVTTRLRENELTYYCCKKDLCNFNEQLEN |
